Data reported in patent US20140018302A1 (SALK INSTITUTE FOR BIOLOGICAL STUDIES INTELLECTUAL PROPERTY …, published 2014).
Positions of bridges follow the written chain, without caps; N, C: chain ends. Non-standard residues stand in square brackets, D forms with d. No end group written: not given here. *: point of attachment. FITC = O=C1OC2(c3ccc(O)cc3Oc3cc(O)ccc32)c2ccc(NC(=S)*)cc21; R8 = C=CCCCCCC[C@@](C)(N)C(=O)O; S5 = C=CCCC[C@](C)(N)C(=O)O

How the values were obtained:
[1] = molecular target: T1, native HDMX (intracellular, in SJSA-X, JEG-3 and MCF-7 cells) (UniProt O15151 1-490); assay: anti-FITC pull-down from SJSA-X cells, HDMX western
T1 construct: mature; Cellular protein in co-immunoprecipitation experiments; In SJSA-X cells it is overexpressed by engineering; also called intracellular HDMX
T1 sequence (looked up): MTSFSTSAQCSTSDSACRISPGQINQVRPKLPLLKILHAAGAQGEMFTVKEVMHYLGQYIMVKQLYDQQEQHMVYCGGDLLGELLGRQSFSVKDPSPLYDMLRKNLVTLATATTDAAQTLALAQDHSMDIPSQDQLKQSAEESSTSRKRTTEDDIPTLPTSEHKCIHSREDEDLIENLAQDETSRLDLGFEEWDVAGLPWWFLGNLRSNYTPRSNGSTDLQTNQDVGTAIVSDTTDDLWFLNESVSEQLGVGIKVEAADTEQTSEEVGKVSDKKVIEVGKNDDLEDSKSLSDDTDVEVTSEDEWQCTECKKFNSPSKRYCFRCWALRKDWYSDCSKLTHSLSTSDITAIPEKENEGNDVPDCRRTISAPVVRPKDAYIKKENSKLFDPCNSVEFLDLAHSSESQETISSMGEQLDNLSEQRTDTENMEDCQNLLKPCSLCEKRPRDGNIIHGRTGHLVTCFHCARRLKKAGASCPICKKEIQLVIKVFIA

[2] = molecular target: T2, native HDM2 (intracellular, in SJSA-X cells) (UniProt Q00987 1-491, limits assumed); assay: anti-FITC pull-down from SJSA-X cells, HDM2 western
T2 construct: mature; Cellular protein in the anti-FITC pull-down; also called intracellular HDM2

[3] = molecular target: T3, recombinant full-length HDMX (UniProt O15151 1-490); assay: fluorescence polarization, 25 nM FITC-peptide
T3 construct: mature; Full-length protein after TEV cleavage of the tags; also called HDM4
T3 sequence (looked up): T1 sequence (looked up)
Protocol: Fluorescence polarization was then measured at equilibrium on a SpectraMax M5 microplate reader (Molecular Devices).

T2 sequence (Q00987 whole entry): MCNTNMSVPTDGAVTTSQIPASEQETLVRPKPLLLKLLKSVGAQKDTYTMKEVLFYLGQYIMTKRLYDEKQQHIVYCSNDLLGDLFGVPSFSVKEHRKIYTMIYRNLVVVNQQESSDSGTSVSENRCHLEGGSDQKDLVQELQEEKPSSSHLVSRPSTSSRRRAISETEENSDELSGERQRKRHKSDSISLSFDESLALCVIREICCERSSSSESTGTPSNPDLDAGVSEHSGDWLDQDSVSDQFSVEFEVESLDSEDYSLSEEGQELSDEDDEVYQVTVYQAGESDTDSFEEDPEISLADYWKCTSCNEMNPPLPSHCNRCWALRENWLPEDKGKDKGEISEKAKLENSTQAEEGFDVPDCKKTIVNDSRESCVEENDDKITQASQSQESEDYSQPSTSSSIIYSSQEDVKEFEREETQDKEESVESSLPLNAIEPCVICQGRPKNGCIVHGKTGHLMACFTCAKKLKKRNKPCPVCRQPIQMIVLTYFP

B1: SAH-p53-8F19A (peptide)
peptide: QSQQTA[R8]NLWRLL[S5]QN
modifications: staple 7-14; not fully specified (N-terminus, C-terminus); also: N-terminal FITC in binding assays
notes: also called FITC-SAH-p53-8F19A
[1]
  binding result: no binding (tested: 15 uM peptide on cells)
[2]
  binding result: no binding (tested: 15 uM peptide on cells)
[3]
  binding result: no binding (tested: 25 pM-100 nM protein)

B2: FITC-WT-p53 14-29 (peptide)
peptide: {FITC}-LSQETFSDLWKLLPEN
notes: Unstapled wild-type peptide, FITC-labeled in the FP assay; also called wild type p53 peptide
[3]
  binding result: no binding (tested: 25 pM-100 nM protein)
